{
  "source": "patent US20060002951",
  "proteins": {"B1": {"name": "HA-tagged APOBEC3G deletion mutant Δ246-384 (protein)", "chain": "MKPHFRNTVERMYRDTFSYNFYNRPILSRRNTVWLCYEVKTKGPSRPPLDAKIFRGQVYSELKYHPEMRFFHWFSKWRKLHRDQEYEVTWYISWSPCTKCTRDMATFLAEDPKVTLTIFVARLYYFWDPDYQEALRSLCQKRDGPRATMKIMNYDEFQHCWSKFVYSQRELFEPWNNLPKYYILLHIMLGEILRHSMDPPTFTFNFNNEPWVRGRHETYLCYEVERMHNDTWVLLNQRRGFLCNQ"}, "B2": {"name": "HA-tagged APOBEC3G deletion mutant Δ157-384 (protein)", "chain": "MKPHFRNTVERMYRDTFSYNFYNRPILSRRNTVWLCYEVKTKGPSRPPLDAKIFRGQVYSELKYHPEMRFFHWFSKWRKLHRDQEYEVTWYISWSPCTKCTRDMATFLAEDPKVTLTIFVARLYYFWDPDYQEALRSLCQKRDGPRATMKIMNYDE"}, "B3": {"name": "HA-tagged APOBEC3G deletion mutant Δ1-156 (protein)", "chain": "MFQHCWSKFVYSQRELFEPWNNLPKYYILLHIMLGEILRHSMDPPTFTFNFNNEPWVRGRHETYLCYEVERMHNDTWVLLNQRRGFLCNQAPHKHGFLEGRHAELCFLDVIPFWKLDLDQDYRVTCFTSWSPCFSCAQEMAKFISKNKHVSLCIFTARIYDDQGRCQEGLRTLAEAGAKISIMTYSEFKHCWDTFVDHQGCPFQPWDGLDEHSQDLSGRLRAILQNQEN"}, "B4": {"name": "wild-type human APOBEC3G with a fused HA tag at the C-terminus (protein)", "chain": "MKPHFRNTVERMYRDTFSYNFYNRPILSRRNTVWLCYEVKTKGPSRPPLDAKIFRGQVYSELKYHPEMRFFHWFSKWRKLHRDQEYEVTWYISWSPCTKCTRDMATFLAEDPKVTLTIFVARLYYFWDPDYQEALRSLCQKRDGPRATMKIMNYDEFQHCWSKFVYSQRELFEPWNNLPKYYILLHIMLGEILRHSMDPPTFTFNFNNEPWVRGRHETYLCYEVERMHNDTWVLLNQRRGFLCNQAPHKHGFLEGRHAELCFLDVIPFWKLDLDQDYRVTCFTSWSPCFSCAQEMAKFISKNKHVSLCIFTARIYDDQGRCQEGLRTLAEAGAKISIMTYSEFKHCWDTFVDHQGCPFQPWDGLDEHSQDLSGRLRAILQNQEN"}, "B5": {"name": "HA-tagged APOBEC3G deletion mutant Δ1-104 (protein)", "chain": "MATFLAEDPKVTLTIFVARLYYFWDPDYQEALRSLCQKRDGPRATMKIMNYDEFQHCWSKFVYSQRELFEPWNNLPKYYILLHIMLGEILRHSMDPPTFTFNFNNEPWVRGRHETYLCYEVERMHNDTWVLLNQRRGFLCNQAPHKHGFLEGRHAELCFLDVIPFWKLDLDQDYRVTCFTSWSPCFSCAQEMAKFISKNKHVSLCIFTARIYDDQGRCQEGLRTLAEAGAKISIMTYSEFKHCWDTFVDHQGCPFQPWDGLDEHSQDLSGRLRAILQNQEN"}, "B6": {"name": "HA-tagged APOBEC3G deletion mutant Δ309-384 (protein)", "chain": "MKPHFRNTVERMYRDTFSYNFYNRPILSRRNTVWLCYEVKTKGPSRPPLDAKIFRGQVYSELKYHPEMRFFHWFSKWRKLHRDQEYEVTWYISWSPCTKCTRDMATFLAEDPKVTLTIFVARLYYFWDPDYQEALRSLCQKRDGPRATMKIMNYDEFQHCWSKFVYSQRELFEPWNNLPKYYILLHIMLGEILRHSMDPPTFTFNFNNEPWVRGRHETYLCYEVERMHNDTWVLLNQRRGFLCNQAPHKHGFLEGRHAELCFLDVIPFWKLDLDQDYRVTCFTSWSPCFSCAQEMAKFISKNKHVSLC"}},
  "key": {"[1]": {"target": "wild-type HIV-1 Gag expressed from the hGag plasmid"}, "[2]": {"target": "HIV-1 Vif (virion infectivity factor)"}, "[3]": {"target": "Gag of HIV-1 BH10 expressed from BH10.P-.Vif- or BH10.FS-.Vif- proviral DNA, P03347"}, "[4]": {"target": "mutant Gag of ZWt-p6.Vif-, in which the nucleocapsid sequence has been replaced with a yeast leucine zipper domain"}},
  "data": [
    {"protein": "B1", "values": [
      {"measurement": "viral content relative to wild type APOBEC3G (Gag VLPs, Western blot)", "setting": "[1]", "value": "the viral content of these N-terminal fragments is >60% of wild type APOBEC3G"}
    ]},
    {"protein": "B2", "values": [
      {"measurement": "cytoplasmic expression of full-length hA3G in the presence of Vif (Western blot with anti-HA)", "setting": "[2]", "value": "an increase in the cytoplasmic expression of full-length hA3G was detected with an increase in expression of hA3G 1-156 or hA3G 157-384, respectively"},
      {"measurement": "incorporation into Gag VLPs (APOBEC3G:Gag ratio, Western blot)", "setting": "[1]", "value": "deletion of the N-terminal 104 amino acids or the C-terminal 157-384 amino acids (See SEQ ID NO: 21) does not affect the ability of APOBEC3G to be packaged into Gag VLPs"},
      {"measurement": "viral content relative to wild type APOBEC3G (Gag VLPs, Western blot)", "setting": "[1]", "value": "the viral content of these N-terminal fragments is >60% of wild type APOBEC3G"}
    ]},
    {"protein": "B3", "values": [
      {"measurement": "reduction in the ability to be degraded by Vif (ratio of expression with and without Vif, Western blot)", "setting": "[2]", "value": "the deletion of the N-terminal 156 or C-terminal 157-384 amino acids results in 80% and 90% reduction in the ability of the resulting fragments to be degraded by Vif, respectively"},
      {"measurement": "incorporation into Gag VLPs (APOBEC3G:Gag ratio, Western blot)", "setting": "[1]", "value": "the deletion of the N-terminal 156 amino acids abolishes its incorporation into viruses"}
    ]},
    {"protein": "B4", "values": [
      {"measurement": "ability of the viruses to package APOBEC3G (Western blots of viral lysates)", "setting": "[3]", "value": "BH10.FS-.Vif- can package APOBEC3G as efficiently as BH10.P-"},
      {"measurement": "ability of the viruses to package APOBEC3G (Western blots of viral lysates)", "setting": "[4]", "value": "the ability of ZWt-p6.Vif- to incorporate APOBEC3G is reduced 90% compared with BH10.FS-.Vif-"},
      {"measurement": "distribution of APOBEC3G between cytoplasm and membrane (sucrose floatation assay)", "setting": "[4]", "value": "the majority of APOBEC3G remains in the cytoplasm even though most Gag is found at membrane"},
      {"measurement": "incorporation of APOBEC3G into Gag VLPs (Western blot of VLP lysates)", "setting": "[1]", "value": "Gag alone is sufficient among the viral proteins for facilitating APOBEC3G incorporation"},
      {"measurement": "share of APOBEC3G in the membrane-bound fraction (sucrose floatation assay)", "setting": "[1]", "value": "in the presence of Gag (FIG. 5B), >90% of APOBEC3G is localized in the membrane-bound protein"}
    ]},
    {"protein": "B5", "values": [
      {"measurement": "incorporation into Gag VLPs (APOBEC3G:Gag ratio, Western blot)", "setting": "[1]", "value": "deletion of the N-terminal 104 amino acids or the C-terminal 157-384 amino acids (See SEQ ID NO: 21) does not affect the ability of APOBEC3G to be packaged into Gag VLPs"}
    ]},
    {"protein": "B6", "values": [
      {"measurement": "viral content relative to wild type APOBEC3G (Gag VLPs, Western blot)", "setting": "[1]", "value": "the viral content of these N-terminal fragments is >60% of wild type APOBEC3G"}
    ]}
  ]
}
